Reference: patent US20110045489A1, “Polymerases for Incorporating Modified Nucleotides” (NEW ENGLAND BIOLABS, INC., priority 2008, published 2011)

Tested on: modified nucleotide
Test: Screen of DNA polymerase mutants for modified nucleotide incorporation
Format: biochemical
Excerpt: In order to determine the extent of 3′-modified nucleotide incorporation by archaeon DNA polymerases, the titration assay described by Gardner and Jack (2002) was used. In this assay, the efficiency of incorporation of chain terminators was judged by the size of the reaction products in a polymerization reaction. As the efficiency of chain-terminator incorporation increased, the average reaction product size decreased because polymerization was more often halted by terminator addition. By comparing the amount of terminator required to give the same spectrum of reaction products, the relative efficiency of incorporation of the test compounds with the different polymerases was determined.
A complex library of 9° N DNA polymerase mutants was screened for enhanced incorporation of 3′-azido-ddCTP. Several classes of 9° N DNA polymerase mutants were identified with enhanced terminator incorporation. 9° N exo-L408S/Y409A/P410V (Therminator III™, NEB, Inc., Ipswich, Mass.) was purified and characterized in more detail. 9° N DNA polymerase single mutants P410V, L408S, and Y409A and double mutants L408S/P410V, L408S/Y409A, and Y409A/P410V were also purified for comparison. Purification and characterization of DNA polymerase mutants was as described in Gardner and Jack, Nucleic Acids Res. 27:2545-2553 (1999).
A library of 9° N DNA polymerase mutants was constructed by PCR amplification of the polymerase genes using gene-specific primers or codon optimization and gene synthesis Czar et al. Trends Biotechnol 27(2): 63-72 (2009)). The ability to incorporate 3′-modified nucleotide terminators was evaluated by the titration assay for chain terminator incorporation efficiency as described by Gardner and Jack (2002).
Furthermore, the same assay was used to measure 3′-amino-ddCTP incorporation by 9° N exo-L408S/Y409A/P410V (FIG. 3) and to measure rates of incorporation (FIG. 4). Examples of mutants that increased modified nucleotide incorporation by at least two-fold were: […]

increase of modified nucleotide incorporation	Molecule
at least two-fold	Mma D153A/E155A/L417S/P419V: Methanococcus maripaludis DNA polymerase mutant (protein) MESLIDLDYNSDDLCIYLYLINSIIKEKDFKPYFYVNSTDKEQILEFLKDYEKKHKLDSEISKMIENIETVKKIVFDENYQEKELSKVTVKYPNNVKTVREILMEFERLYEYDIPFVRRYLIDNSVIPTSTWDFENNKKIDNKIPDFKTVSFAIAVYCNKEPNPKKDPIIMASFSSKDFNTVVSTKKFDHEKLEYVKDEKELIKRIIEILKEYDIIYTYNGDNFDFPYLKKRAESFGLELKLGKNDEKIKITKGGMNSKSYIPGRVHIDLYPIARRLLNLTKYRLENVTEALFDVKKVDVGHENIPKMWDNLDETLVEYSHQDAYYTQRIGEQFLPLEIMFSRVVNQSLYDINRMSSSQMVEYLLLKNSYKMGVIAPNRPSGKEYQKRIRSSYEGGYVKEPLKGIHEDIVSMDFLSSYVSIIMSHNLSPETIDCTCCSDEENGENEEILGHKFCKKSIGIIPKTLMDLINRRKKVKKVLREKAEKGEFDEEYQILDYEQRSIKVLANSHYGYLAFPMARWYSRDCAEITTHLGRQYIQKTIEEAENFGFKVIYADTDGFYSKWADDKEKLSKYELLEKTREFLKNINNTLPGEMELEFEGYFKRGIFVTKKKYALIDENEKITVKGLEVVRRDWSNVSKNTQKNVLNALLKEGSVENAKKVIQDTIKELKDGKVNNEDLLIHTQLTKRIEDYKTTAPHVEVAKKILKSGNRVNTGDVISYIITSGNKSISERAEILENAKNYDTNYYIENQILPPVIRLMEALGITKDELKDSKKQYTLHHFLK
at least two-fold	9° N D141A/E143A/Y409A/S411T: 9° N DNA polymerase mutant (protein, UniProt Q56366 1-775, looked up, variant D141A E143A Y409A S411T) DNA polymerase: MILDTDYITENGKPVIRVFKKENGEFKIEYDRTFEPYFYALLKDDSAIEDVKKVTAKRHGTVVKVKRAEKVQKKFLGRPIEVWKLYFNHPQDVPAIRDRIRAHPAVVDIYEYDIPFAKRYLIDKGLIPMEGDEELTMLAFAIATLYHEGEEFGTGPILMISYADGSEARVITWKKIDLPYVDVVSTEKEMIKRFLRVVREKDPDVLITYNGDNFDFAYLKKRCEELGIKFTLGRDGSEPKIQRMGDRFAVEVKGRIHFDLYPVIRRTINLPTYTLEAVYEAVFGKPKEKVYAEEIAQAWESGEGLERVARYSMEDAKVTYELGREFFPMEAQLSRLIGQSLWDVSRSSTGNLVEWFLLRKAYKRNELAPNKPDERELARRRGGYAGGYVKEPERGLWDNIVYLDFRSLAPTIIITHNVSPDTLNREGCKEYDVAPEVGHKFCKDFPGFIPSLLGDLLEERQKIKRKMKATVDPLEKKLLDYRQRAIKILANSFYGYYGYAKARWYCKECAESVTAWGREYIEMVIRELEEKFGFKVLYADTDGLHATIPGADAETVKKKAKEFLKYINPKLPGLLELEYEGFYVRGFFVTKKKYAVIDEEGKITTRGLEIVRRDWSEIAKETQARVLEAILKHGDVEEAVRIVKEVTEKLSKYEVPPEKLVIHEQITRDLRDYKATGPHVAVAKRLAARGVKIRPGTVISYIVLKGSGRIGDRAIPADEFDPTKHRYDAEYYIENQVLPAVERILKAFGYRKEDLRYQKTKQVGLGAWLKVKGKK
at least two-fold	9° N D141A/E143A/L408S/Y409A/P410V/S411T: 9° N DNA polymerase mutant (protein, UniProt Q56366 1-775, looked up, variant D141A E143A L408S Y409A P410V S411T) DNA polymerase: MILDTDYITENGKPVIRVFKKENGEFKIEYDRTFEPYFYALLKDDSAIEDVKKVTAKRHGTVVKVKRAEKVQKKFLGRPIEVWKLYFNHPQDVPAIRDRIRAHPAVVDIYEYDIPFAKRYLIDKGLIPMEGDEELTMLAFAIATLYHEGEEFGTGPILMISYADGSEARVITWKKIDLPYVDVVSTEKEMIKRFLRVVREKDPDVLITYNGDNFDFAYLKKRCEELGIKFTLGRDGSEPKIQRMGDRFAVEVKGRIHFDLYPVIRRTINLPTYTLEAVYEAVFGKPKEKVYAEEIAQAWESGEGLERVARYSMEDAKVTYELGREFFPMEAQLSRLIGQSLWDVSRSSTGNLVEWFLLRKAYKRNELAPNKPDERELARRRGGYAGGYVKEPERGLWDNIVYLDFRSSAVTIIITHNVSPDTLNREGCKEYDVAPEVGHKFCKDFPGFIPSLLGDLLEERQKIKRKMKATVDPLEKKLLDYRQRAIKILANSFYGYYGYAKARWYCKECAESVTAWGREYIEMVIRELEEKFGFKVLYADTDGLHATIPGADAETVKKKAKEFLKYINPKLPGLLELEYEGFYVRGFFVTKKKYAVIDEEGKITTRGLEIVRRDWSEIAKETQARVLEAILKHGDVEEAVRIVKEVTEKLSKYEVPPEKLVIHEQITRDLRDYKATGPHVAVAKRLAARGVKIRPGTVISYIVLKGSGRIGDRAIPADEFDPTKHRYDAEYYIENQVLPAVERILKAFGYRKEDLRYQKTKQVGLGAWLKVKGKK
at least two-fold	9° N D141A/E143A/N491L/Y494S: 9° N DNA polymerase mutant (protein, UniProt Q56366 1-775, looked up, variant D141A E143A N491L Y494S) DNA polymerase: MILDTDYITENGKPVIRVFKKENGEFKIEYDRTFEPYFYALLKDDSAIEDVKKVTAKRHGTVVKVKRAEKVQKKFLGRPIEVWKLYFNHPQDVPAIRDRIRAHPAVVDIYEYDIPFAKRYLIDKGLIPMEGDEELTMLAFAIATLYHEGEEFGTGPILMISYADGSEARVITWKKIDLPYVDVVSTEKEMIKRFLRVVREKDPDVLITYNGDNFDFAYLKKRCEELGIKFTLGRDGSEPKIQRMGDRFAVEVKGRIHFDLYPVIRRTINLPTYTLEAVYEAVFGKPKEKVYAEEIAQAWESGEGLERVARYSMEDAKVTYELGREFFPMEAQLSRLIGQSLWDVSRSSTGNLVEWFLLRKAYKRNELAPNKPDERELARRRGGYAGGYVKEPERGLWDNIVYLDFRSLYPSIIITHNVSPDTLNREGCKEYDVAPEVGHKFCKDFPGFIPSLLGDLLEERQKIKRKMKATVDPLEKKLLDYRQRAIKILALSFSGYYGYAKARWYCKECAESVTAWGREYIEMVIRELEEKFGFKVLYADTDGLHATIPGADAETVKKKAKEFLKYINPKLPGLLELEYEGFYVRGFFVTKKKYAVIDEEGKITTRGLEIVRRDWSEIAKETQARVLEAILKHGDVEEAVRIVKEVTEKLSKYEVPPEKLVIHEQITRDLRDYKATGPHVAVAKRLAARGVKIRPGTVISYIVLKGSGRIGDRAIPADEFDPTKHRYDAEYYIENQVLPAVERILKAFGYRKEDLRYQKTKQVGLGAWLKVKGKK
at least two-fold	9° N D141A/E143A/Y409A/P410R/S411T: 9° N DNA polymerase mutant (protein, UniProt Q56366 1-775, looked up, variant D141A E143A Y409A P410R S411T) DNA polymerase: MILDTDYITENGKPVIRVFKKENGEFKIEYDRTFEPYFYALLKDDSAIEDVKKVTAKRHGTVVKVKRAEKVQKKFLGRPIEVWKLYFNHPQDVPAIRDRIRAHPAVVDIYEYDIPFAKRYLIDKGLIPMEGDEELTMLAFAIATLYHEGEEFGTGPILMISYADGSEARVITWKKIDLPYVDVVSTEKEMIKRFLRVVREKDPDVLITYNGDNFDFAYLKKRCEELGIKFTLGRDGSEPKIQRMGDRFAVEVKGRIHFDLYPVIRRTINLPTYTLEAVYEAVFGKPKEKVYAEEIAQAWESGEGLERVARYSMEDAKVTYELGREFFPMEAQLSRLIGQSLWDVSRSSTGNLVEWFLLRKAYKRNELAPNKPDERELARRRGGYAGGYVKEPERGLWDNIVYLDFRSLARTIIITHNVSPDTLNREGCKEYDVAPEVGHKFCKDFPGFIPSLLGDLLEERQKIKRKMKATVDPLEKKLLDYRQRAIKILANSFYGYYGYAKARWYCKECAESVTAWGREYIEMVIRELEEKFGFKVLYADTDGLHATIPGADAETVKKKAKEFLKYINPKLPGLLELEYEGFYVRGFFVTKKKYAVIDEEGKITTRGLEIVRRDWSEIAKETQARVLEAILKHGDVEEAVRIVKEVTEKLSKYEVPPEKLVIHEQITRDLRDYKATGPHVAVAKRLAARGVKIRPGTVISYIVLKGSGRIGDRAIPADEFDPTKHRYDAEYYIENQVLPAVERILKAFGYRKEDLRYQKTKQVGLGAWLKVKGKK
at least two-fold	9° N D141A/E143A/L408P/Y409A/P410V/S411T: 9° N DNA polymerase mutant (protein, UniProt Q56366 1-775, looked up, variant D141A E143A L408P Y409A P410V S411T) DNA polymerase: MILDTDYITENGKPVIRVFKKENGEFKIEYDRTFEPYFYALLKDDSAIEDVKKVTAKRHGTVVKVKRAEKVQKKFLGRPIEVWKLYFNHPQDVPAIRDRIRAHPAVVDIYEYDIPFAKRYLIDKGLIPMEGDEELTMLAFAIATLYHEGEEFGTGPILMISYADGSEARVITWKKIDLPYVDVVSTEKEMIKRFLRVVREKDPDVLITYNGDNFDFAYLKKRCEELGIKFTLGRDGSEPKIQRMGDRFAVEVKGRIHFDLYPVIRRTINLPTYTLEAVYEAVFGKPKEKVYAEEIAQAWESGEGLERVARYSMEDAKVTYELGREFFPMEAQLSRLIGQSLWDVSRSSTGNLVEWFLLRKAYKRNELAPNKPDERELARRRGGYAGGYVKEPERGLWDNIVYLDFRSPAVTIIITHNVSPDTLNREGCKEYDVAPEVGHKFCKDFPGFIPSLLGDLLEERQKIKRKMKATVDPLEKKLLDYRQRAIKILANSFYGYYGYAKARWYCKECAESVTAWGREYIEMVIRELEEKFGFKVLYADTDGLHATIPGADAETVKKKAKEFLKYINPKLPGLLELEYEGFYVRGFFVTKKKYAVIDEEGKITTRGLEIVRRDWSEIAKETQARVLEAILKHGDVEEAVRIVKEVTEKLSKYEVPPEKLVIHEQITRDLRDYKATGPHVAVAKRLAARGVKIRPGTVISYIVLKGSGRIGDRAIPADEFDPTKHRYDAEYYIENQVLPAVERILKAFGYRKEDLRYQKTKQVGLGAWLKVKGKK
